Source: article PMC4154765, “Crystal Structure of the Mineralocorticoid Receptor DNA Binding Domain in Complex with DNA” (PLoS ONE, 2014)

Assays:
[1] = target: the molecule itself; assay: crystal structure; MR DBD crystallised with a 17 base pair GRE DNA, 2:1 molar ratio of DNA to protein, protein at 3.0 mg/ml; hanging-drop vapor diffusion, 0.2 M sodium malonate, 12% PEG 3350; the DBD dimer is seen bound to the two DNA half sites
[2] = target: GR DBD (UniProt P04150 417-506); assay: fluorescence polarization; 10 nM DNA; slight positive cooperativity; endpoint called affinity; FP: 100 mM NaCl, 20 mM Tris-HCl pH 7.4, 5% glycerol, 10 nM FAM-GRE; temperature not stated; details: protein: recombinant; chain copies: 2; label: 5' 6-FAM on strand 1; blunt
[3] = target: T1, MR DBD (human, UniProt P08235 593-671); assay: as above; details: protein: recombinant; tags: 6xHis (pMCSG7 vector); chain copies: 2; label: 5' 6-FAM on strand 1; blunt
[4] = target: T1, MR DBD; assay: X-ray crystallography; DBD dimer on two half sites; 2.4 A; FP: 100 mM NaCl, 20 mM Tris-HCl pH 7.4, 5% glycerol, 10 nM FAM-GRE; temperature not stated; details: protein: recombinant; tags: 6xHis (pMCSG7 vector); chain copies: 2

Chain of GR DBD (P04150 417-506): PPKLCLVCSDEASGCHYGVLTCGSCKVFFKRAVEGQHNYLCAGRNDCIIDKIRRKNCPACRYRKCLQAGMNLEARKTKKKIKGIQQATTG

B1: human mineralocorticoid receptor DNA binding domain (domain or fragment, UniProt P08235 593-671, looked up)
chain: STGSSRPSKICLVCGDEASGCHYGVVTCGSCKVFFKRAVEGQHNYLCAGRNDCIIDKIRRKNCPACRLQKCLQAGMNLG
notes: Cloned into pMCSG7, 'which contains a 6X-histidine tag'; Two copies of the chain form the dimer on the GRE DNA in the crystal; also called MR DBD; MR
**Q.** Does B1 bind [1]?
**A.** Result: binds

B2: FAM-GRE (dsDNA)
DNA 1: CCAGAACAGAGTGTTCTGA
DNA 2: TCAGAACACTCTGTTCTGG
**Q.** B2 was tested. Which Kd [2] did it give?
**A.** Its Kd is 53 nM.

**Q.** And the Kd [3]?
**A.** The Kd was 55 nM.

B3: GRE 17 bp (crystal) (dsDNA)
DNA 1: GTCTTGTCTCACAAGAC
DNA 2: GTCTTGTGAGACAAGAC
**Q.** Does B3 bind [4]?
**A.** Result: binds
